Literature values in patent US10294487B2, “Methods and compositions involving ALS variants with native substrate preference” (E I DU PONT DE NEMOURS AND COMPANY, priority 2012, dated 2019).
Numbering of substitutions follows the chain as printed. Names and notes keep the numbering of the source.

B1: A122V: Site-directed mutation in A. thaliana ALS; position A122, 103 (protein, UniProt P17597 56-670, looked up, variant A122V)
Acetolactate synthase, …: SSSPSSISAVLNTTTNVTTTPSPTKPTKPETFISRFAPDQPRKGADILVEALERQGVETVFAYPGGVSMEIHQALTRSSSIRNVLPRHEQGGVFAAEGYARSSGKPGICIATSGPGATNLVSGLADALLDSVPLVAITGQVPRRMIGTDAFQETPIVEVTRSITKHNYLVMDVEDIPRIIEEAFFLATSGRPGPVLVDVPKDIQQQLAIPNWEQAMRLPGYMSRMPKPPEDSHLEQIVRLISESKKPVLYVGGGCLNSSDELGRFVELTGIPVASTLMGLGSYPCDDELSLHMLGMHGTVYANYAVEHSDLLLAFGVRFDDRVTGKLEAFASRAKIVHIDIDSAEIGKNKTPHVSVCGDVKLALQGMNKVLENRAEELKLDFGVWRNELNVQKQKFPLSFKTFGEAIPPQYAIKVLDELTDGKAIISTGVGQHQMWAAQFYNYKKPRQWLSSGGLGAMGFGLPAAIGASVANPDAIVVDIDGDGSFIMNVQELATIRVENLPVKVLLLNNQHLGMVMQWEDRFYKANRAHTFLGDPAQEDEIFPNMLLFAAACGIPAARVTKKADLREAIQTMLDTPGPYLLDVICPHQEHVLPMIPSGGTFNDVITEGDGRIKY
B2: R199E: Site-directed mutation in A. thaliana ALS; position R199, 180 (protein, UniProt P17597 56-670, looked up, variant R199E)
Acetolactate synthase, …: B1 Acetolactate synthase, … with V67A, R144E
B3: F590L: Site-directed mutation in S. cerevisiae ALS; position F578, 559 (protein, UniProt P07342 91-687, looked up, variant F590L)
Acetolactate synthase …: GLTGGQIFNEMMSRQNVDTVFGYPGGAILPVYDAIHNSDKFNFVLPKHEQGAGHMAEGYARASGKPGVVLVTSGPGATNVVTPMADAFADGIPMVVFTGQVPTSAIGTDAFQEADVVGISRSCTKWNVMVKSVEELPLRINEAFEIATSGRPGPVLVDLPKDVTAAILRNPIPTKTTLPSNALNQLTSRAQDEFVMQSINKAADLINLAKKPVLYVGAGILNHADGPRLLKELSDRAQIPVTTTLQGLGSFDQEDPKSLDMLGMHGCATANLAVQNADLIIAVGARFDDRVTGNISKFAPEARRAAAEGRGGIIHFEVSPKNINKVVQTQIAVEGDATTNLGKMMSKIFPVKERSEWFAQINKWKKEYPYAYMEETPGSKIKPQTVIKKLSKVANDTGRHVIVTTGVGQHQMWAAQHWTWRNPHTFITSGGLGTMGYGLPAAIGAQVAKPESLVIDIDGDASFNMTLTELSSAVQAGTPVKILILNNEEQGMVTQWQSLLYEHRYSHTHQLNPDFIKLAEAMGLKGLRVKKQEELDAKLKEFVSTKGPVLLEVEVDKKVPVLPMVAGGSGLDEFINFDPEVERQQTELRHKRTGGKH
B4: A200V: Site-directed mutation in S. cerevisiae ALS; position A205, 186 (protein, UniProt P07342 91-687, looked up, variant A200V)
Acetolactate synthase …: B3 Acetolactate synthase … with A110V, L500F
B5: D379N: Site-directed mutation in S. cerevisiae ALS; position D376, 357 (protein, UniProt P07342 91-687, looked up, variant D379N)
Acetolactate synthase …: B3 Acetolactate synthase … with D289N, L500F
B6: M354V: Site-directed mutation in S. cerevisiae ALS; position M351, 332 (protein, UniProt P07342 91-687, looked up, variant M354V)
Acetolactate synthase …: B3 Acetolactate synthase … with M264V, L500F
B7: K251T: Site-directed mutation in S. cerevisiae ALS; position K256, 237 (protein, UniProt P07342 91-687, looked up, variant K251T)
Acetolactate synthase …: B3 Acetolactate synthase … with K161T, L500F
B8: G116S: Site-directed mutation in Saccharomyces cerevisiae ALS; position G121 A. thal., 102 G. max (protein, UniProt P07342 91-687, looked up, variant G116S)
Acetolactate synthase …: B3 Acetolactate synthase … with G26S, L500F
B9: W586L: Site-directed mutation in S. cerevisiae ALS; position W574, 555 (protein, UniProt P07342 91-687, looked up, variant W586L)
Acetolactate synthase …: B3 Acetolactate synthase … with W496L, L500F
B10: P192S: Site-directed mutation in S. cerevisiae ALS; position P197, 178 (protein, UniProt P07342 91-687, looked up, variant P192S)
Acetolactate synthase …: B3 Acetolactate synthase … with P102S, L500F

Assays:
ALS [1] = details: cited from earlier work; for Kinetic parameters: Km / Kinetic parameters: kcat: pyruvate reaction
ALS [2] = details: cited from earlier work; for Resistance pattern, I50 fold increase: IM: imidazolinone(s); for Resistance pattern, I50 fold increase: SU: sulfonylurea(s); for Resistance pattern, I50 fold increase: IEt: imazethapyr

| Molecule | Kinetic parameters: Kc for FAD (ALS [1]; cofactor activation constant, flavin adenine dinucleotide) | Kinetic parameters: Kc for TPP (ALS [1]; cofactor activation constant, thiamin pyrophosphate) | Kinetic parameters: Km (ALS [1]) | Kinetic parameters: kcat (ALS [1]) | Resistance pattern, I50 fold increase: IM (ALS [2]) | Resistance pattern, I50 fold increase: SU (ALS [2]) | Resistance pattern, I50 fold increase: IEt (ALS [2]) | Resistance pattern, I50 fold increase: SM (ALS [2]; sulfometuron methyl) | Resistance pattern, I50 fold increase: IP (ALS [2]; IP (abbreviation not defined)) [fold] |
| --- | --- | --- | --- | --- | --- | --- | --- | --- | --- |
| B1 | Kc for FAD, 400 % wt | Kc for TPP, 2000 % wt | Km, 160 % wt | kcat, 25 % wt | IMs, 1000-2000 fold | SUs, 4 fold |  |  |  |
| B2 |  |  |  |  |  |  | IEt, 50 fold | SM, 2 fold |  |
| B3 |  |  | Km, 30 % wt | kcat, 200 % wt | IM, 60 fold | SUs, 30-300 fold |  |  |  |
| B4 |  |  | 100 % wt | 20 % wt | IMs, 10-100 fold | SUs, 300-700 fold |  |  |  |
| B5 |  |  | Km, 133 % wt | kcat, 140 % wt | hypersensitivity | SUs, 200-900 fold |  |  |  |
| B6 |  |  | Km, 60 % wt | kcat, 50 % wt |  | SUs, 5-85 fold | 90 fold |  | 10 |
| B7 |  |  | 65 % wt | 1 % wt | IMs, 10-150 fold | SU, 10-100 fold |  |  |  |
| B8 |  |  | Km, 20 % wt | kcat, 75 % wt | IMs 15-300 fold | SUs, 1000-10000 fold |  |  |  |
| B9 |  |  | Km, 80 % wt | kcat, 450 % wt | IMs, 8-70 fold | SUs, 1000-10000 fold |  |  |  |
| B10 |  |  | Km, 75 % wt | kcat, 25 % wt |  | SUs, 400-2000 fold | IEt, 10 fold |  |  |
